Laboratory results as given in US20150359847A1, “METHOD AND COMPOSITION FOR CONFERRING NEUROPROTECTION” (BLOOD SYSTEMS RESEARCH INSTITUTE, priority 2014, published 2015).

Tested on: phospho-S6 Ribosomal Protein (S235/236) in hippocampus
Assay: Hippocampal phospho-S6RP western blot and tissue staining 3 days post-TBI
Type: in vivo, mouse
Text: The mouse controlled cortical impact (CCI) injury model was used as previously described. In brief, mice were anesthetized with 5% isoflurane and 1:1 O2:N2 mixture. Animals were mounted on a stereotaxic frame and were secured by ear bars and an incisor bar. Anesthesia was maintained with 2.0% isoflurane and 1:1 O2:N2 mixture. A 5-mm-diameter craniotomy was made midway between bregma and lambda on the right side, with the medial edge of the craniotomy 1 mm lateral to midline. Injury was produced using a magnetic impactor mounted at an angle of 110° from the vertical plane. A single impact at a velocity of 4+/−0.2 m/s was used inflict a moderate to severe injury (1.2-1.3 mm impact depth). After injury, the incision was closed. Sham animals underwent identical surgeries except for impact injury. Core body temperature was monitored using a rectal thermometer and maintained at 36.8° C.-37.2° C. with a heating pad throughout the procedure. For treatments, TIMP3 (60.0 μg/kg) or vehicle control (PBS) administration was performed at 2, 24, and 48 hrs after injury via tail vein injections in a total volume of 125 μl. Animal research was performed with approval of the Institutional Animal Care and Use Committee at ISIS Services LLC (San Carlos, Calif., USA). Mice received humane care according to the criteria outlined by the National Research Council's Institute of Laboratory Animal Resources in the “Guide for the Care and Use of Laboratory Animals”. Neurocognitive testing conducted at UT Houston was in compliance with University of Texas Houston Institutional Animal Care and Use Committee.
Following treatments mice were subjected to a intra-cardiac perfusion-fixation procedure under isoflurane anesthesia. In brief, following a small incision into the right ventricle, a blunt needle was placed 5 mm into the heart and clamped in place. The left atrium was cut and 30 mls of ice cold PBS was perfused through the mouse using a syringe pump at a constant rate of 4 ml/min. After PBS the procedure was repeated with 30 ml of 4% ice-cold paraformaldehyde (PFA) in PBS. Upon completion of the perfusion procedure, brains were dissected out and placed in 20 mls of 4% PFA for a further 24 hrs before transferring to a 30% sucrose solution for an additional 48 hrs. Following sucrose infiltration, brains were frozen in Tissue-Tek O.C.T.™ compound (Cat#4583, Sakura Fineteck USA, Inc. Torrance, Calif.) using an isopentane/dry ice bath. To prepare coronal sections for tissue staining 20 μm thick sections were obtained using a Leica CM1850™ cryostat (Leica Microsystems, Buffalo Grove, Ill.). Sections were immediately placed in a Storage Solution (30% Glycerol, 30% Ethylene Glycol, 40% 0.1M Phosphate Buffer pH 7.2) and stored at −20° C. until required.
The same protocol was adopted for both tissue sections and isolated neuronal cultures. Briefly, sections were permeabilized with antibody staining solution:—2% w/v BSA (Cat# A3059. Sigma, St Louis, Mo.), 0.1% Triton X-100™ (Cat# X100. Sigma, St Louis, Mo.), 2% v/v goats serum (Cat# S-1000, Vector Labs, Burlingame, Calif.) in PBS. Sections were incubated overnight with primary antibodies on a rotating shaker at 4° C. Sections were then washed three times for 3 min with PBS, and then incubated with secondary antibodies for 1 hr. After staining, sections were washed in PBS, briefly air dried, and coverslipped using Prolong™ gold anti-fade reagent with DAPI (Cat# P36931, Life Technologies, Grand Island, N.Y.). Isolated neuronal cultures underwent the same staining protocol with the exception of the last step in which Prolong gold anti-fade reagent with DAPI was added to the wells of the culture plate sufficient to cover the material. Images were obtained using a Leica DMI6000-B™ inverted microscope, Leica DFC36-FX™ digital camera and Leica Application Suite™ (L.A.S.) software, version 3.1. […]

B1: TIMP3: Recombinant tissue inhibitor of matrix metalloproteinase-3, a soluble protein released by MSCs, obtained from Amgen Inc. (protein)
chain: CTCSPSHPQDAFCNSDIVIRAKVVGKKLVKEGPFGTLVYTIKQMKMYRGFTKMPHVQYIHTEASESLCGLKLEVNKYQYLLTGRVYDGKMYTGLCNFVERWDQLTLSQRKGLNYRYHLGCNCKIKSCYYLPCFVTSKNECLWTDMLSNFGYPGYQSKHYACIRQKGGYCSWYRGWAPPDKSIINATDP
3 days post-TBI, western blot
  ipsilateral hippocampal phospho-S6RP levels versus sham controls: are not significantly elevated in TBI alone versus sham controls unlike IV TIMP3 treated animals versus Sham controls
TIMP3 60 μg/kg IV x3, day 3, western blot, vs TBI alone
  phospho-S6 Ribosomal Protein (S235/236) in ipsilateral hippocampal homogenates: significantly elevates
Day 3, tissue staining
  phospho-S6RP pixel density in area CA3: significant elevation
  phospho-S6RP/NeuN+ve neurons in the GCL proximal to injury site: an elevation with TIMP3 treatment
Day 3, western blot
  phospho-S6RP (S235/236) in contralateral hippocampal homogenates: No differences were observed
Ipsilateral hippocampus, day 3
  phosphorylated S6RP staining in the non-neuronal molecular layer (microglia/astrocytes): Neither sham controls nor TIMP3 treated TBI mice showed this pattern of staining
